Reference: patent US9457062B2, “Chaperonin 10-induced immunomodulation” (CBIO LIMITED, priority 2005, dated 2016)

B1: Hsp60: chaperonin 60, protein folding partner of Cpn10 (protein)
chain: AKDVKFGADARALMLQGVDLLADAVAVTMGPKGRTVIIEQSWGSPKVTKDGVTVAKSIDLKDKYKNIGAKLVQDVANNTNEEAGDGTTTATVLARSIAKEGFEKISKGANPVEIRRGVMLAVDAVIAELKKQSKPVTTPEEIAQVATISANGDKEIGNIISDAMKKVGRKGVITVKDGKTLNDELEIIEGMKFDRGYISPYFINTSKGQKCEFQDAYVLLSEKKISSIQSIVPALEIANAHRKPLVIIAEDVDGEALSTLVLNRLKVGLQVVAVKAPGFGDNRKNQLKDMAIATGGAVFGEEGLTLNLEDVQPHDLGKVGEVIVTKDDAMLLKGKGDKAQIEKRIQEIIEQLDVTTSEYEKEKLNERLAKLSDGVAVLKVGGTSDVEVNEKKDRVTDALNATRAAVEEGIVLGGGCALLRCIPALDSLTPANEDQKIGIEIIKRTLKIPAMTIAKNAGVEGSLIVEKIMQSSSEVGYDAMAGDFVNMVEKGIIDPTKVVRTALLDAAGVASLLTTAEVVVTEIPKEEKDPGMGAMGGMGGGMGGGMF
B2: IFNγ: recombinant mouse IFNγ (Chemicon), non-TLR agonist (protein, UniProt P01580 23-155, looked up)
Interferon gamma: HGTVIESLESLNNYFNSSGIDVEEKSLFLDIWRNWQKDGDMKILQSQIISFYLRLFEVLKDNQAISNNISVIESHLITTFFSNSKAKKDAFMSIAKFEVNNPQVQRQAFNELIRVVHQLLPESSLRKRKRSRC

Legend:
GM1 = experiment: FRET with GM1 (lipid rafts) on MonoMac 6 cells; assay type: binding, human; settings: donor GM1
Experimental: (§1) Cell labeling for FRET. MonoMac 6 cells (a human monocytic cell line) were labeled with 100 μl of a mixture of donor conjugated antibody (Cy3) and acceptor conjugated antibody (Cy5). For labelling of Cpn10, an anti-Cpn10 rabbit polyclonal antibody was used. The cells were rinsed twice in PBS/0.02% BSA, prior to fixation with 4% formaldehyde for 15 min. The cells were fixed in order to prevent potential re-organisation of the proteins during the course of the experiment. Confocal imaging. Cells were imaged on a Carl Zeiss, Inc. LSM510 confocal microscope (with an Axiovert 200 fluorescent microscope) using a 1.4 NA 63× Zeiss objective. The images were analysed using LSM 2.5 image analysis software (Carl Zeiss, Inc.). Cy3 and Cy5 were detected using the appropriate filter sets. Using typical exposure times for image acquisition (less than 5 s), no fluorescence was observed from a Cy3-labelled specimen using the Cy5 filters, nor was Cy5 fluorescence detected using the Cy3 filter sets. FRET measurements. FRET is a non-invasive imaging technique used to determine molecular proximity. […]
In the present study, FRET was measured using a method as previously described (Kenworthy and Edidin (1998) Journal of Cell Biology 142: 69-84; Kenworthy and Edidin (1998) in Gelb, M. H. (Ed.) Methods in molecular Biology. Humana Press Inc, Totowa, N.J. pp 37-49). […]

CD14 = biological target: T1, CD14 (Homo sapiens, UniProt P08571); experiment: FRET with CD14 on MonoMac 6 cells; assay type: binding
T1 construct: MonoMac 6 cells (a human monocytic cell line); endogenous in cells; host or cells: MonoMac 6
T1 sequence (P08571 20-345): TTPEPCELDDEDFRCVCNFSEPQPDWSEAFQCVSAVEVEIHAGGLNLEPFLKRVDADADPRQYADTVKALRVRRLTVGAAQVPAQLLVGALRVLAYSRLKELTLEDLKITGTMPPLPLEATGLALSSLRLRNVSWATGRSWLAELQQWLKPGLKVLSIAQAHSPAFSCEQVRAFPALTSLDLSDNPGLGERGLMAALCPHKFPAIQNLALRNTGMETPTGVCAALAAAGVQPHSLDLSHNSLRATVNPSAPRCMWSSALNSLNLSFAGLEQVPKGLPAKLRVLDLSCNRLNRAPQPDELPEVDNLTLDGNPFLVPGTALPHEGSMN
Experimental: as §1, with “used. […]” for “used. The cells were rinsed twice in PBS/0.02% BSA, prior to fixation with 4% formaldehyde for 15 min.”, “measurements. […] In the present study,” for “measurements.”, “FRET was measured using” for “FRET is”, “a method as previously described (Kenworthy and […] (1998) Journal of Cell Biology 142: 69-84; Kenworthy and […] (1998) in Gelb, M. H. (Ed.) Methods in” for “a non-invasive imaging technique used to determine”, “molecular Biology. Humana Press Inc, Totowa, N.J. pp 37-49). Briefly, samples were labeled with donor and acceptor conjugated antibodies, and energy transfer was detected as an increase in donor fluorescence (dequenching) after complete photobleaching of the acceptor molecule.” for “molecular proximity.”

TLR4 = biological target: T2, TLR4 (Homo sapiens, UniProt O00206); experiment: FRET with TLR4 on MonoMac 6 cells; assay type: binding
T2 construct: endogenous in cells; host or cells: freshly isolated human monocytes; human monocyte-derived DC
T2 sequence (O00206 24-839): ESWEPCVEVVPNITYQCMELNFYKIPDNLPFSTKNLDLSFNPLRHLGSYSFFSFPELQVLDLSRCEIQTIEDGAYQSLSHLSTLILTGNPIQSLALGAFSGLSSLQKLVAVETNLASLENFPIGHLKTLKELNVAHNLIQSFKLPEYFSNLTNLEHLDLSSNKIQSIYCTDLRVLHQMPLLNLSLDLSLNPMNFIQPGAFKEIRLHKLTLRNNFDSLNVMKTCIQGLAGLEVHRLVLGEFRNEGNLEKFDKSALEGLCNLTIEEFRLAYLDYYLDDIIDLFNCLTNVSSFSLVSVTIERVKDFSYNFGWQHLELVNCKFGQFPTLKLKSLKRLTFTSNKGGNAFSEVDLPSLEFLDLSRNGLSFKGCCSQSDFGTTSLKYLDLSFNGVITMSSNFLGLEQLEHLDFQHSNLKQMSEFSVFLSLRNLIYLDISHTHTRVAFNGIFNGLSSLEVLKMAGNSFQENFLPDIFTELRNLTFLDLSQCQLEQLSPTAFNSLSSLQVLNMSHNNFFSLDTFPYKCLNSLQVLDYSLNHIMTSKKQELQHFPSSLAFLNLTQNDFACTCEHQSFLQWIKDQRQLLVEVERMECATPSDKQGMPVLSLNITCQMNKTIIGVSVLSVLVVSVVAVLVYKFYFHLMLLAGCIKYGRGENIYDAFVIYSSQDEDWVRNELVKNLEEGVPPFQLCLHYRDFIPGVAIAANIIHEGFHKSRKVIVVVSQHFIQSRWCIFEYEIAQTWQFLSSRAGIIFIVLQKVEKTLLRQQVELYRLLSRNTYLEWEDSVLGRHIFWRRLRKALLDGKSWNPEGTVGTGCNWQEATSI
Experimental: as §1, with “used. […]” for “used. The cells were rinsed twice in PBS/0.02% BSA, prior to fixation with 4% formaldehyde for 15 min.”, “measurements. […] In the present study,” for “measurements.”, “FRET was measured using” for “FRET is”, “a method as previously described (Kenworthy and […] (1998) Journal of Cell Biology 142: 69-84; Kenworthy and […] (1998) in Gelb, M. H. (Ed.) Methods in” for “a non-invasive imaging technique used to determine”, “molecular Biology. Humana Press Inc, Totowa, N.J. pp 37-49). Briefly, samples were labeled with donor and acceptor conjugated antibodies, and energy transfer was detected as an increase in donor fluorescence (dequenching) after complete photobleaching of the acceptor molecule.” for “molecular proximity.”

Cpn10 promoter = Cpn10 promoter luciferase reporter (pCAT/LUC-CPN) in RAW264.7 cells; assay type: cell-based, mouse; settings: optimal agonist concentrations (FIG. 18H): IFNγ 1 ng/ml, IL-1β 1 ng/ml, TNF-α 100 ng/ml
Description: Reagents. Recombinant human Cpn10 was produced to GMP specifications by BresaGen Limited (Adelaide, Aus) essentially as described previously (Johnson, B. 2005. J. Biol Chem 280:4037-4047). […] For FACS analysis, a cysteine residue was engineered onto the C-terminus of Cpn10 and labeled with AlexFluor647 (Invitrogen) according to manufacturer's instructions. […] TLR ligands and cytokines included: E. coli LPS (strain 055:B5, Sigma), E. coli ultra-pure LPS (0111:B4 Sigma), S. aureus LTA, B. subtilis LTA, S. aureus PGN, B. subtilis PGN, zymosan cell wall from S. cerevisae, poly(I:C), imiquimod R837, CpG ODN 1826 and ODN2216, GpC ODN1826 control, (all from Invivogen, San Diego, Calif.), recombinant mouse IFNγ, (Chemicon), IL-1β (PeproTech), and recombinant human TNF-α (Invivogen). Antibodies. Rabbit polyclonal antibodies were raised against Cpn10 and affinity purified at CBio. […] After 24 h cells were harvested and cell viability assessed by trypan blue dye exclusion. […] Cells were washed, harvested in Cell Culture Lysis Reagent (CCLR, Promega) and firefly luciferase signal measured using the Luciferase Assay System (Promega) and the Wallac Victor 2 Multilabel Counter (Perkin-Elmer). […] Cells were assessed for viability, pooled per condition (n=4), pelleted by centrifugation and resuspended in CCLR.

| Molecule | E ± ΔE (%) energy transfer efficiency (GM1; MM6 cells stimulated with LPS) [%] | E ± ΔE (%) energy transfer efficiency (GM1; Unstimulated MM6 cells) [%] | E ± ΔE (%) energy transfer efficiency (CD14; MM6 cells stimulated with LPS) [%] | E ± ΔE (%) energy transfer efficiency (CD14; Unstimulated MM6 cells) [%] | E ± ΔE (%) energy transfer efficiency (TLR4; MM6 cells stimulated with LPS) [%] | E ± ΔE (%) energy transfer efficiency (TLR4; Unstimulated MM6 cells) [%] | up-regulation of the Cpn10 promoter (Cpn10 promoter) |
| --- | --- | --- | --- | --- | --- | --- | --- |
| B1 | 8 ± 2.0 | 6 ± 0.5 | 4 ± 2.0 | 6 ± 0.5 | 6 ± 1.0 | 5 ± 1.0 | – |
| B2 | – | – | – | – | – | – | did not induce substantial up-regulation |
